Laboratory results taken from paper PMC8062120.

Legend:
[1] = target: F-actin (rabbit skeletal muscle actin, polymerized) (rabbit) (UniProt P68135)
[2] = target: F-actin (Oryctolagus cuniculus) (UniProt P68135); settings: cited from earlier work
[3] = target: α-actinin-2 (Homo sapiens) (UniProt P35609); settings: cited from earlier work
Chain of α-actinin-2 (Homo sapiens) (P35609 whole entry): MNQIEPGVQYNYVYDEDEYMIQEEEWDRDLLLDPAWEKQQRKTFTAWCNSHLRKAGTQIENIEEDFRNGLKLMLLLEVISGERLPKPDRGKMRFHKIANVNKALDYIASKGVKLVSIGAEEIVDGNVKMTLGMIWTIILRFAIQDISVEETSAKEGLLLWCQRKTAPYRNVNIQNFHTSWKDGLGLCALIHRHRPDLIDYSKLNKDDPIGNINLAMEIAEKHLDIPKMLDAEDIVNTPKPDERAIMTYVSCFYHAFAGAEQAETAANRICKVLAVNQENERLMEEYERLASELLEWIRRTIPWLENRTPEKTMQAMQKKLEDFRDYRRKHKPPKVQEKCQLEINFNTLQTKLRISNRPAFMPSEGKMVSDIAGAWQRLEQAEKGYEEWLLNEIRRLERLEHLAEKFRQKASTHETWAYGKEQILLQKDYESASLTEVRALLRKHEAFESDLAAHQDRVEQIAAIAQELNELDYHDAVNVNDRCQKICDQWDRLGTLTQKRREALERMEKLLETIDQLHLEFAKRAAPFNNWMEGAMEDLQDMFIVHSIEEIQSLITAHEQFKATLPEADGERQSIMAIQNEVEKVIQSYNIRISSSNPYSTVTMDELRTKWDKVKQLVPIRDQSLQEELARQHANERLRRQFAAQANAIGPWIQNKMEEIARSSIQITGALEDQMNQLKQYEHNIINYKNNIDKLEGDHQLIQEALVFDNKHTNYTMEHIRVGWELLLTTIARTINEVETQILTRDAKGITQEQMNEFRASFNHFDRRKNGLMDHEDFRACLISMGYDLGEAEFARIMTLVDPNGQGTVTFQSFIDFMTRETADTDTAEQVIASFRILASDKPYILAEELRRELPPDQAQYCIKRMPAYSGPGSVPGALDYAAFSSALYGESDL

Chain of Titin Zr-7 (Q8WZ42 692-740): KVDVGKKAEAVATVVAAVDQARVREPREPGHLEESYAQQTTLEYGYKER

## N-terminal EGFP fusion of myotilin K354/358/359A (from UniProt Q9UBF9 1-498) (natural protein)
[1]
  FRAP in Z-discs of C2C12 myotubes, median half-time of fluorescence recovery: 32.3 s

## N-terminal EGFP fusion of myotilin K354/359A (from UniProt Q9UBF9 1-498) (natural protein)
[1]
  FRAP in Z-discs of C2C12 myotubes, median half-time of fluorescence recovery: 35.5 s

## N-terminal EGFP fusion of myotilin K354A (from UniProt Q9UBF9 1-498) (natural protein)
[1]
  FRAP in Z-discs of C2C12 myotubes, median half-time of fluorescence recovery: 48.2 s

## N-terminal EGFP fusion of myotilin K359A (from UniProt Q9UBF9 1-498) (natural protein)
[1]
  FRAP in Z-discs of C2C12 myotubes, median half-time of fluorescence recovery: 64.1 s

## N-terminal EGFP fusion of myotilin, wild type (from UniProt Q9UBF9 1-498) (natural protein)
[1]
  FRAP in Z-discs of C2C12 myotubes, median half-time of fluorescence recovery: 72.4 s

## Palladin (from UniProt Q8WX93)
[2]
  Kd: 2100 nM

## Titin Zr-7 (from UniProt Q8WZ42)
[3]
  Kd: 480 nM
